Assay results published in US20240366776A1 (Hoffmann-La Roche, published 2024).

T1: biotinylated IL-2 receptor beta gamma heterodimer Fc (IL-2RBG; Acro ILG-H5254) (UniProt P14784 27-239; P31785 23-262, biotinylated)
T1 construct: bought heterodimer
T1 sequence (looked up) 1: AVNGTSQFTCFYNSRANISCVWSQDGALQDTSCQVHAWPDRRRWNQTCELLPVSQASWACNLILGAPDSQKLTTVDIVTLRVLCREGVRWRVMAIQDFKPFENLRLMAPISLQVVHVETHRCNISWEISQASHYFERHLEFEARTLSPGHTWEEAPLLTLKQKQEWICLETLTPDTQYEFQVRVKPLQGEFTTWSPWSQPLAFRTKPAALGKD
T1 sequence (looked up) 2: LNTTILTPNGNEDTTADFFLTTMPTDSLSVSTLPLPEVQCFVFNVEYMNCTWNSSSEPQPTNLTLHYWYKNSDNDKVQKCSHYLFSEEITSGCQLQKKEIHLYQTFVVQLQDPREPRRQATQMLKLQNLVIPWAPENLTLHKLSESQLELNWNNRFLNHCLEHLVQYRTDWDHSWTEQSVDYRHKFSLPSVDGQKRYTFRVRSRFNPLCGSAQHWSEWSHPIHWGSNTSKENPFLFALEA


Biological target: T1, biotinylated IL-2 receptor beta gamma …
Experiment: ELISA, captured complex, biotin-IL-2RBG 10 nM, PD-1 Fc titrated
Procedure: The DBA-cytokine complexes and control antibody-cytokine complexes were produced in two formats: (1) “Symmetric” immunocytokine (shown in FIG. 2E); or (2) “Asymmetric” immunocytokine (shown in FIG. 2B) by expression in mammalian cells and purified using standard protocols. […] To perform the assay, 384-well ELISA plates were coated with anti-Fc antibody at 1 micrograms/ml in 100 mM bicarbonate solution pH 9.0 overnight at 4° C. and washed twice with SUPERBLOCK™. Antibody-cytokine complexes were then added to each well at a constant concentration of 6 nM and allowed to incubate for 1 hour and washed three times in PBS plus 0.05% TWEEN® 20 (PBST). Titrated concentrations of PD-1 Fc or an IgG1 control Fc were added and allowed to incubate for 15 minutes before the addition of a constant amount of biotinylated IL-2RBG at 10 nM. The plates were incubated for an additional 30 minutes, washed and biotinylated IL-2RBG detection was performed using streptavidin-HRP and standard ELISA protocols.

Binder | binding result
AF003747 (other, also called AF3747) heavy 1: APASSSTKKTQLQLEHLLLDLQMILNGINNYKNPKLTRMLTAKFAMPKKATELKHLQCLEEELKPLEEVLNGAQSKNFHLRPRDLISNINVIVLELKGSETTFMCEYADETATIVEFLNRWITFAQSIISTLTGGGGSGGGGSGGGGSGGGGSQVQLVQSGAEVKKPGASVKVSCKASGDTFTRYYVHWVRQAPGQGLEWMGIINPSGGYASYAQKFQGRVTMTRDTSTSTVYMELSSLRSEDTAVYYCAAGLFIWGQGTLVTVSSAKTTAPSVYPLAPVCGDTTGSSVTLGCLVKGYFPEPVTLTWNSGSLSSGVHTFPAVLQSDLYTLSSSVTVTSSTWPSQSITCNVAHPASSTKVDKKIEPRGPTIKPCPPCKCPAPNAAGGPSVFIFPPKIKDVLMISLSPIVTCVVVDVSEDDPDVQISWFVNNVEVHTAQTQTHREDYNSTLRVVSALPIQHQDWMSGKEFKCKVNNKDLGAPIERTISKPKGSVRAPQVYVLPPPEEEMTKKQVTLTCMVTDFMPEDIYVEWTNNGKTELNYKNTEPVLDSDGSYFMYSDLRVEKKNWVERNSYSCSVVHEGLHNHHTTESFSRTPGK heavy 2: QVQLVQSGAEVKKPGASVKVSCKASGDTFTRYYVHWVRQAPGQGLEWMGIINPSGGYASYAQKFQGRVTMTRDTSTSTVYMELSSLRSEDTAVYYCAAGLFIWGQGTLVTVSSAKTTAPSVYPLAPVCGDTTGSSVTLGCLVKGYFPEPVTLTWNSGSLSSGVHTFPAVLQSDLYTLSSSVTVTSSTWPSQSITCNVAHPASSTKVDKKIEPRGPTIKPCPPCKCPAPNAAGGPSVFIFPPKIKDVLMISLSPIVTCVVVDVSEDDPDVQISWFVNNVEVHTAQTQTHREDYNSTLRVVSALPIQHQDWMSGKEFKCKVNNKDLGAPIERTISKPKGSVRAPQVYVLPPPEKEMTKKQVSLTCLVKDFMPEDIYVEWTNNGKTELNYKNTEPVLKSDGSYFMYSKLTVEKKNWVERNSYSCSVVHEGLHNHHTTKSFSRTPGK light: DIQMTQSPSSLSASVGDRVTITCRASQSIGRYLAWYQQKPGKAPKLLIYSASNLETGVPSRFSGSGSGTDFTLTISSLQPEDFATYYCQQYNSFPVTFGPGTKVDIKRADAAPTVSIFPPSSEQLTSGGASVVCFLNNFYPKDINVKWKIDGSERQNGVLNSWTDQDSKDSTYSMSSTLTLTKDEYERHNSYTCEATHKTSTSPIVKSFNRNEC | binds
AF003749 (other, also called AF3749) heavy 1: APASSSTKKTQLQLEHLLLDLQMILNGINNYKNPKLTRMLTAKFAMPKKATELKHLQCLEEELKPLEEVLNGAQSKNFHLRPRDLISNINVIVLELKGSETTFMCEYADETATIVEFLNRWITFAQSIISTLTGGGGSGGGGSGGGGSGGGGSQVQLVQSGAEVKKPGASVKVSCKASGDTFTRYYVHWVRQAPGQGLEWMGIINPSGGYASYAQKFQGRVTMTRDTSTSTVYMELSSLRSEDTAVYYCAAGLFIWGQGTLVTVSSAKTTAPSVYPLAPVCGDTTGSSVTLGCLVKGYFPEPVTLTWNSGSLSSGVHTFPAVLQSDLYTLSSSVTVTSSTWPSQSITCNVAHPASSTKVDKKIEPRGPTIKPCPPCKCPAPNAAGGPSVFIFPPKIKDVLMISLSPIVTCVVVDVSEDDPDVQISWFVNNVEVHTAQTQTHREDYNSTLRVVSALPIQHQDWMSGKEFKCKVNNKDLGAPIERTISKPKGSVRAPQVYVLPPPEEEMTKKQVTLTCMVTDFMPEDIYVEWTNNGKTELNYKNTEPVLDSDGSYFMYSDLRVEKKNWVERNSYSCSVVHEGLHNHHTTESFSRTPGK heavy 2: QVQLVQSGAEVKKPGASVKVSCKASGDTFTRYYVHWVRQAPGQGLEWMGIINPSGGYASYAQKFQGRVTMTRDTSTSTVYMELSSLRSEDTAVYYCAAGLFIWGQGTLVTVSSAKTTAPSVYPLAPVCGDTTGSSVTLGCLVKGYFPEPVTLTWNSGSLSSGVHTFPAVLQSDLYTLSSSVTVTSSTWPSQSITCNVAHPASSTKVDKKIEPRGPTIKPCPPCKCPAPNAAGGPSVFIFPPKIKDVLMISLSPIVTCVVVDVSEDDPDVQISWFVNNVEVHTAQTQTHREDYNSTLRVVSALPIQHQDWMSGKEFKCKVNNKDLGAPIERTISKPKGSVRAPQVYVLPPPEKEMTKKQVSLTCLVKDFMPEDIYVEWTNNGKTELNYKNTEPVLKSDGSYFMYSKLTVEKKNWVERNSYSCSVVHEGLHNHHTTKSFSRTPGK light: DIQMTQSPSSLSASVGDRVTITCRASQSIGRYLAWYQQKPGKAPKLLIYYASNLETGVPSRFSGSGSGTDFTLTISSLQPEDFATYYCQQYNSFPVTFGPGTKVDIKRADAAPTVSIFPPSSEQLTSGGASVVCFLNNFYPKDINVKWKIDGSERQNGVLNSWTDQDSKDSTYSMSSTLTLTKDEYERHNSYTCEATHKTSTSPIVKSFNRNEC | binds
